Assay results from publication doi:10.1101/071720.

Target: recombinant pscC protein of Pseudomonas aeruginosa (PA01), His-GST fusion (Pseudomonas aeruginosa PA01)
Experiment: SEC

**Q.** “recombinant pscC protein of Pseudomonas aeruginosa (PA01), His-GST fusion (domain or fragment)” was tested. Which stoichiometry N did it give?
**A.** The stoichiometry N was 2.
